# According to publication doi:10.1101/2023.04.13.536802 (bioRxiv, 2023):
# Where no end group is shown, it is not given here.
# Molecular target: recombinant transferrin receptor 1 (TfR1) ectodomain (residues C89-F763) (UniProt Q62351 89-763)
# Experiment: BLI
# Chain of recombinant transferrin receptor 1 (TfR1) ectodomain (residues C89-F763) (Q62351 89-763): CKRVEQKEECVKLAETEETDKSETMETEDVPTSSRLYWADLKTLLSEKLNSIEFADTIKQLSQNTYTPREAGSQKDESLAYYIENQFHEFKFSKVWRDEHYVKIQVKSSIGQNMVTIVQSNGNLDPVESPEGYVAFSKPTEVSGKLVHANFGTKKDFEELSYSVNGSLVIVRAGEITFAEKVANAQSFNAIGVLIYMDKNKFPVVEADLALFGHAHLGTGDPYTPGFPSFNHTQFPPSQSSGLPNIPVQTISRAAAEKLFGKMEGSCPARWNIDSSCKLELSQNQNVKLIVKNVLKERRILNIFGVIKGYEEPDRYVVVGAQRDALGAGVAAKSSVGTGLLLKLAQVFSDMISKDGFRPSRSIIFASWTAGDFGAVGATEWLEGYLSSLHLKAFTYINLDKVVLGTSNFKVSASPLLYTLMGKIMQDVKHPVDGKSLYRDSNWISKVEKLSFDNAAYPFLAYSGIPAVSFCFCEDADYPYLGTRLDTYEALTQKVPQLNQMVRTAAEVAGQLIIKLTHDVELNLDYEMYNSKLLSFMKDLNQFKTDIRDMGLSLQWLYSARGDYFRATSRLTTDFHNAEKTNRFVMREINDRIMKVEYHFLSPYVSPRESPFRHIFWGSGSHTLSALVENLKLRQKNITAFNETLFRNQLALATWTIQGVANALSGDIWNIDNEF
binder,measurement,value
"THRPPMWSPVWP (also: biotin, position not given here) [T12, 12-mer peptide that binds transferrin receptor 1]",Kd,26 nM
